From the nanobody polyreactivity screen of Harvey et al. (2022)

assay: yeast display, Sf9 membrane polyspecificity reagent, FACS + sequencing; frameworks hold sequencing errors
Outline: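 In a synthetic yeast display library (Saccharomyces cerevisiae BJ5465), nanobody expression was induced with galactose for 36–48 hours. FACS gates were set low and high (top ~1%) using anti-HA fluorescence for expression and streptavidin fluorescence for binding of the Sf9 membrane reagent. Each polyreactivity label is drawn from the gate of origin.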

Sequence | polyreactivity (PSR sort gate)
QVQLVESGGGLVQAGGSLRLSCAASGSIFSRNAMGWYRQAPGKERELVAAITRSGGRTYYADSVKGRFTISRDNAKNTVYLQMNSLKPEDTAVYYCNALASQEYDYWGQGTQVTVSS | high polyreactivity
QVQLVESGGGLVQAGGSLRLSCAASGFTFFRYAMGWYRQAPGKERELVATITSGGTTNYADSVKGRFTISRDNAKNTVYLQMNSLKPEDTAVYYCAARTYPSYYVTFEYWGQGTQVTVSS | low polyreactivity
QVQLVESGGGLVQAGGSLRLSCAASGLTFLDYDMGWYRQAPGKERELVADIDWSGGNTYYADSVKGRFTISRDNAKNTVYLQMNSLKPEDTAVYYCNTVTEAVTRRYDYWGQGTQVTVSS | low polyreactivity
QVQLVESGGGLVQAGGSLRLSCAASGSTLRGNAMGRYRQAPGKVREFVAAISSSGGRTYYADSVKGRFTISRDNAKNTVNLQMTSLNPEDTAVYYCAAARYQYYFSSVPRAYYYWGQGTQVTVSS | high polyreactivity
QVQLVDSGGGLVQAGGSLRLSCAASGRIFRYYAMGWSRQAPGKERELVARITNGAITNYADSVKGRFTISRDNAKNTLYLQRNSLKPEETAVYYCAATQNLYRCGYWGQGTQVTVSS | high polyreactivity
QVQLVESGGGLVQAGGSLRLSCAASGFIFNKYAMGWYRQAPGKERELVATIRRDGSTNYADSVKGRFTISRDNAKNTVYLQMNSLIPEDTAVYYCAVRPYYWSRDYYWGQGTQVTVSS | high polyreactivity
QVQLVESGGGLVQAGGSLRLSCAASGLNFGSNAMGWYRQAPGKERELVAAITWSGGSTYYADSVKGRFTISRDNAKNTVYLQMNSLKPEDTAVYYCAAKRWYRYYWGQGTQVTVSS | high polyreactivity
QVQLVESGGGLVQEGGSLRLSCAASGRIFSRYVMGWYRQAPGKERELVAAITGSGGSTYYADSVKGRFTISRDNAKNTVYLQMNSLKPEDTADYYCAVVSRANSYRYNYWGQGTQVTVSS | high polyreactivity
QVQLVESGGGLVHAGGSLRLSCAASGSTFIRNAMGWYRQAPGKERELVAAISSSGGRTYYADSVKGRFTISRDNAKNTVYLQMNSLKPEDTAVYYCAARYVPPWGRRYYYWGQGTQVTVSS | high polyreactivity
QVQLVESGGGLVQAGGSLRLSCAASGSTFSRNAMGWYRQAPGKERELVATISRSGRTNYADSVKGRFTISRDNAKNTVYLQMNSLKPEDTAVSYCNAGYRRSYEYWGQGTQVTVSS | low polyreactivity
QVQLVESGGGLVQAGGSLRLSCAASGRTFGYYAMGWYRQAPGKEREFVAAISWSGGSTYYADSVKGRFTISRDNAKNTVYLQMNSLKPEDTAVYYCATDTTYYAGSWYGYWGQGTQVTVSS | low polyreactivity
QVQLVESGGGLVQAGGSLRLSCAASGSIFYGYAMGWYRQAPGKERELVAAITWIDGSTYYADSVKGRFTISRDNAKNPVFLQLTSLKPEDTAVYYCAAGGYFYSFYYWGQGTQVTVSS | low polyreactivity
QVQLVESGGGLVQAGGSLRLSCAASGRIFAGNTKGWYRQAPGKERELVAAITSSGGSTYYADSVKGRFTISRDNANTTVYLQMNSLKPEDTAVYYPIVYYVKYYYWGQGTQVTVSS | high polyreactivity
QVQLVESGGGLVQAGGSLRLTCAASGRTFWYYAMGWYRQAPGKERELVAAISRNGGSTYYEDSVKGRFTISRDNAKNTVYLQMNSLKPEDTAVYYCAATLLRDYDYWGQGTQVTVSS | high polyreactivity
QVQLVESGGGLVQAGGSLRLSCAASGSTFFEYTMGWYRQAPGKEREFVADIRGRDGSTSYADSVKGRFTISRDNAKNTVYLQMNSLKPEDTAVYYCAVGVYPSYRGPTFSTRRDYWGQGTQVTVSS | low polyreactivity
QVQLVESGGGLVQAGGSLRLSCAASGSICYDDMGWYSQAPGKERELVAAITWSGGSTYYADSVKGRFTISRDNAKNTVYLQMNSLKPEDTAVYYCAAIFGYGSTWWRWGKDDYWGQGTQVTVSS | high polyreactivity
QVQLVESGGGLVQAGGSLRLSCAASGRTFFVYTMGWYRQAPGKERELVAAITSDTSTTYADSVKGRFTISRDNAKNTVYLQMISLKPEDTAVYYCAAEGYVGYYDYDYWGQGTQVTVSS | low polyreactivity
QVQLVESGGGLVQAGGSLRLSCAASGFIFRRNAMGWYRQAPGKERELVATIRASGGRTYYADSVKGRFTISRDNAKNTVYLQMNSLKPEDTAVYYCNKRGGYYGSPNYDYWGQGTQVTVSS | high polyreactivity
QVQLVESGGGLVQAGGSLRLSCAASGSTSSPNAMGRYRQAPGKEREFVAAISRSGGSTYYADSVKGRFTISRDNAKNTVYLQMNSLKPEETSVHYCAATVTVFYTRYYYWGQGTQVTVSS | high polyreactivity
QVQLVESGGGLVQAGGSLRLSCAASGLIFGYYAMGWYRQAPGKERELVAAISSSGTRTYYADSVKGRFTISRDNAMNTVYLQMNSLKPEDTAVYYCNADSYGSRYEYWGQGTQVTVSS | high polyreactivity
QVQHVESGGGLVQAGGSLRLSCAASGSIFSVYAMGWYRPEPGKASQLFAGITRGGSTYADSVKGRFTISRDNAKNTVYLQMNSLKPEDTAVYYCAADALIATPSWGKYNYWVQGTQVTVSS | high polyreactivity
QVQLVESGGGLVQEGGSLRLSCAASGINFNVNALGWYKQAPGKERELVARITTSGGSTSYADSVKGRFTISRDNAKNTVYLQMNSLKPDDTAVYYCAADRARYYSEYDYWGQGTQVNVSS | low polyreactivity

Sequence | polyreactivity (PSR sort gate)
QVQLVESGGGLVQAGGSLRLSCAPSGSTFFTYAMGWYRQAPGKERELVASISIGGSTNYADSVKGRFTISRDNAKNTVYLQMNSLIQEDSAVYYCAIRYFTFGVDYEYWGQGTQVTVSS | low polyreactivity
QVQLVESAGGLVQAGGSLRLSCAASGGTFLQYAMGSYRQAPGKERELVATITLIGDSTYYADSVKGRFTISRDNAKNTVYLQMNSLIPEDTAVYYCADRPVTSYAYGSWGQGTQVTVSS | low polyreactivity
QVQLVESGGGLVQAGGSLRLSCAASGRTFNVYAMGWYRQAPGKERELVAGISSSGGSTYYADSVKGRFTISRDNAKNTVYLQMNSLKPEDTAVYYCNTVYKYHGVRPYGYWGQGTQVTVSS | high polyreactivity
QVQLVESGGGLVQAGGSLRLSCAASGRTFGHYAMGWYRQAPGKERELVAAITSRGGSTNYADSVKGRFTISRDNAKKTDYLQMNSLKPEDTAVYYCAARLSPEEGYWGQGTQVTVSS | high polyreactivity
QVQRVESGGGLVQAGGSLRLSCAASGSTFKKYVMGWYRPAPGKERELVAAISGRGGSTYYADSVKGRFTISRDNAKNTVYLQMNSLKPEDTAVYYCNARKQTARFDSWGQGTQVTVSS | high polyreactivity
QVQLVESGGRLVQAGGSLRLSCAASGSTFGWNAMGWYRQAPGKETELVAAISRSGGRTYYADSVKGRFTISRDNANNTVYLQMISLKPEVTAVYYCAADRSTTGGLRGYWGQGTQVTVSS | high polyreactivity
QVQIVESGGGLVQAGGSLRLSCDASGSTFVRYAMGWYRQAHGKERELVAAISYRGGSTYYADSVKGRFTISRDNAKNTVYLQMNSLKPEDTAVYYCAAESRHVEGEYWGQGTQVTVSS | high polyreactivity
QVQLVDSGGGLVQAGGSLRLSCAASGSIFPRYAMGWYRQAPGKERELVASISASGGSTYYADSVKGRFTISRDNAKITVYLQMYSLKPEDTAVYYCAKADRTGWLDGDYWGQGTQVTVSS | low polyreactivity
QVQLVESGGGLVQAGGSLRLSCAASGSTFGYYAMGWYRQAPGKERELVAAITASGGGTYYADSVKGRFTISRDNAKNTFYLQMNSLKPEDTEVYYCNRGYDYWGQGTHVTVSS | low polyreactivity
QVQLVESGGGLVQAGGSLRLSCAASGLTFTPNAMGWYRQAPGKEREFVAAITWRGGRTYYADSVKGRFTISRDNAKNTVYLQMNSLKPEDTAVYYCAVTYRPTYQLDYWGQGTQVTVSS | high polyreactivity
QVQLVESGGGLVQAGGSLRLSCAASGSIFYGNTMGWYRQAPGKERELVAAITWSGDSTYYADSVKGRFTISRDNAKNTVYLQMNSLKPEDTAVYYCNADQTGVYYAGEGNYWGQGTQVTVSS | low polyreactivity
QDQLVESGGGLVQAGGSLRLSCAASGRTFQYNAMGWDRQARGSERELVAAISSSGGSTYYADSVKGRFTISRDNAKNTVYLQMNSLKPEDTAVYYCNAYSQSWNFYGDGDYWGQGTQVTVSS | low polyreactivity
QVQLVESGGGLVQAGGSLRLSCAASGLTIWRYAMGWYRQAPGKEREFVATISQNGGRTYYADSVKGRFTISRDNAKNTVYLQMNSLKPEDTAVYYCAADDWRWGYDYWGQGTQVTVSS | high polyreactivity
QVQLVESGGGLVQAGGSLRLSCAASGRIFRYYVMGWYRQAPGKERELVAAITSGGSTYYADSVKGRFTISRDNAKNTVYLQMNSLKPEDTAVYYCAAETTLPIFYYTQVNYWGQGTQVTVSS | low polyreactivity
QVQLVESGGGLDQAGGSLRLSCAASGYTFLIYAMGWYRQAPGKERELVAAISYRDGRTYYADSVKGRFTISRDNAKNTVYLQMNSLNPEDTAVYYCAATLFYQPYRSYYYWGQGTQVTVSS | high polyreactivity
QVQLVESGGGLVQAGGSLRLSCAASGRTFGLYAMGWYRQAPGKERELVATITTSDIITYYADSVKGRFTISRDNAKNSVYLQMNSLKPEDTAVYYCASGGYDDFSSRPANDYWGQGTQVTVSS | low polyreactivity
QAQLVESGGGLVQAGGRLRLICAASGSIFAGYAMGWSRQAPGKERELVATITSSSRTNYADSVKGRFSISRDNAKNNVYLQMNILKPEETAVSYCAARGRSVIDVYRMYYWGQGTKVTVSS | high polyreactivity
QVQLVESGGGLVQAGGSLRLSCAASGFIFGNYVLGWSRQAPGKERELVAAISESGSRTYYADSVKGRFTISRDYAKKTVYLQMNSLKPEDTAVYYCAAALFSYYGEYDYWGQGTQVTVSS | low polyreactivity
QDQLVESGGGLVQAGGSLRLSCAASGSTFKYNAMGWYRQAPGQERELVAAITSGGSTDYADSVKGRFTISRDNAMNHVYFQMNLLNPEDTAVYYCNDDIYPHDGYPWQGDYDYWGQGTQVTVSS | low polyreactivity
QVHLVDSGGGLVQAGGSLRFSCAASGSIFGWYAMGWYRQAPGTERELVDSIAVTAGSTYYADSVKWRFPISRDKAKNTGYLQLNRLKPEDTALYSCAADDYSADAVQRFYYWGQGSQVTVSS | low polyreactivity
QVQLLESGCGLVQAGGSLSIRCAATGFIFIFIAMGWSRQATGTERELVAAIDTSDDSTYYADSVMGRFTISRDNAKNTVYLQMNRLKTEDTAVYYCAAEELSNYEYWGQGTQVTVSS | low polyreactivity
